Test results: the Human Domainome abundance scans (Beltran et al. 2025)
± gives the uncertainty stated by the source.

B1: POU domain, class 3, transcription factor 2, residues 356 to 411; numbered along this chain, P20265 (parent)
chain: KKRTSIEVSVKGALESHFLKCPKPSAQEITSLADSLQLEKEVVRVWFCNRRQKEKR

Variants of: B1
Assay: abundance fitness (aPCA) (normalised: wild type 0, dead -1); higher = more abundant; growth selection in yeast, the domain comes from the species named
Conditions: Homo sapiens

In order of rising abundance fitness:
1. KKRTSIEVSVKGALESHFLKCPKPSAQEITSLADSLQLEKEVVRVWQCNRRQKEKR [F47Q]  -1 ± 0.19
2. KKRTSIEVSVKGALESHFLKCPKPSAQEITSLADSLQLEKEVVRVWNCNRRQKEKR [F47N]  -0.967 ± 0.38
3. KKRTSIEVSVKGALESHFLKCPKPSAQEITSLADSLQLEKEVVRVWKCNRRQKEKR [F47K]  -0.961 ± 0.21
4. KKRTSIEVSVKGALESHFLKCPKPSAQEITSLADSLQLEKEVVRVWPCNRRQKEKR [F47P]  -0.941 ± 0.24
5. KKRTSIEVSVKGALESHFLKCPKPSAQEITSLADSLQLEKEVVRVWCCNRRQKEKR [F47C]  -0.937 ± 0.27
6. KKRTSIEVSVKGALESHFLKCPKPSAQEITSLADSLQLEKEVVRVLFCNRRQKEKR [W46L]  -0.934 ± 0.091
7. KKRTSIEVSVKGALESHFLKCPKPSAQEITSLADSLQLEKEVVRVVFCNRRQKEKR [W46V]  -0.933 ± 0.12
8. KKRTSIEVSVKGALESHFLKCPKPSAQEITSLADSLQLEKEVVRVAFCNRRQKEKR [W46A]  -0.932 ± 0.13
9. KKRTSIEVSVKGALESHFLKCPKPSAQEITSLADSLQLEKEVVRVHFCNRRQKEKR [W46H]  -0.927 ± 0.23
10. KKRTSIEVSVKGALESHFLKCPKPSAQEITSLADSLQLEKEVVRVWACNRRQKEKR [F47A]  -0.92 ± 0.15
11. KKRTSIEVSVKGALESHFLKCPKPSAQEITSLADSLQLEKEVVRVNFCNRRQKEKR [W46N]  -0.896 ± 0.3
12. KKRTSIEVSVKGALESHFLKCPKPSAQEITSLADSLQLEKEVVRVWSCNRRQKEKR [F47S]  -0.871 ± 0.12
13. KKRTSIEVSVKGALESHFLKCPKPSAQEITSLADSLQLEKEVVRVWDCNRRQKEKR [F47D]  -0.852 ± 0.37
14. KKRTSIEVSVKGALESHFLKCPKPSAQEITSLADSLQLEKEVVRVKFCNRRQKEKR [W46K]  -0.845 ± 0.18
15. KKRTSIEVSVKGALESHFLKCPKPSAQEITSLADSLQLEKEVVPVWFCNRRQKEKR [R44P]  -0.814 ± 0.12
16. KKRTSIEVSVKGALESHFLKCPKPSAQEITSLADSLQLEKEVVRVWVCNRRQKEKR [F47V]  -0.784 ± 0.13
17. KKRTSIEVSVKGALESHFLKCPKPSAQEITSLADSLQLEKEVVRVQFCNRRQKEKR [W46Q]  -0.78 ± 0.16
18. KKRTSIEVSVKGALESHFLKCPKPSAQEITSLADSLQLEKEVVRVWICNRRQKEKR [F47I]  -0.751 ± 0.21
19. KKRTSIEVSVKGALESHFLKCPKPSAQEITSLADSLQLEKEVVRVWLCNRRQKEKR [F47L]  -0.722 ± 0.1
20. KKRTSIEVSVKGALESHFLKCPKPSAQEITSLADSLQLEKEVVRVWGCNRRQKEKR [F47G]  -0.698 ± 0.14
21. KKRTSIEVSVKGALESHFLKCPKPSAQEITSLADSLQLEKEVVRVSFCNRRQKEKR [W46S]  -0.698 ± 0.1
22. KKRTSIEVSVKGALESHFLKCPKPSAQEITSLADSLQLEKEVVRVWECNRRQKEKR [F47E]  -0.672 ± 0.17
23. KKRTSIEVSVKGALESHFLKCPKPSAQEITSLADSLQLEKEVVRVYFCNRRQKEKR [W46Y]  -0.648 ± 0.24
24. KKRTSIEVSVKGALESHFLKCPKPSAQEITSLADSLQLEKEVVCVWFCNRRQKEKR [R44C]  -0.495 ± 0.1
25. KKRTSIEVSVKGALESHFLKCPKPSAQEITSLADSLQLEKEVVFVWFCNRRQKEKR [R44F]  -0.481 ± 0.089
26. KKRTSIEVSVKGALESHFLKCPKPSAQEITSLADSLQLEKEVVRVWMCNRRQKEKR [F47M]  -0.43 ± 0.12
27. KKRTSIEVSVKGALESHFLKCPKPSAQEITSLADSLQLEKEVVYVWFCNRRQKEKR [R44Y]  -0.416 ± 0.12
28. KKRTSIEVSVKGALESHFLKCPKPSAQEITSLADSLQLEKEVVWVWFCNRRQKEKR [R44W]  -0.412 ± 0.14
29. KKRTSIEVSVKGALESHFLKCPKPSAQEITSLADSLQLEKEVVLVWFCNRRQKEKR [R44L]  -0.407 ± 0.068
30. KKRTSIEVSVKGALESHFLKCPKPSAQEITSLADSLQLEKEVVVVWFCNRRQKEKR [R44V]  -0.38 ± 0.076
31. KKRTSIEVSVKGALESHFLKCPKPSAQEITSLADSLQLEKERVRVWFCNRRQKEKR [V42R]  -0.363 ± 0.079
32. KKRTSIEVSVKGALESHFLKCPKPSAQEITSLADSLQLEKEVVRVWYCNRRQKEKR [F47Y]  -0.328 ± 0.14
33. KKRTSIEVSVKGALESHFLKCPKPSAQEITSLADSLQLEKEVVIVWFCNRRQKEKR [R44I]  -0.272 ± 0.11
34. KKRTSIEVSVKGALESHFLKCPKPSAQEITSLADSLQLEKEVVMVWFCNRRQKEKR [R44M]  -0.214 ± 0.11
35. KKRTSIEVSVKGALESHFLKCPKPSAQEITSLADSLQLEKEVVGVWFCNRRQKEKR [R44G]  -0.188 ± 0.1
36. KKRTSIEVSVKGALESHFLKCPKPSAQEITSLADSLQLEKESVRVWFCNRRQKEKR [V42S]  -0.179 ± 0.11
37. KKRTSIEVSVKGALESHFLKCPKPSAQEITSLADSLQLEKEVVNVWFCNRRQKEKR [R44N]  -0.152 ± 0.11
38. KKRTSIEVSVKGALESHFLKCPKPSAQEITSLADSLQLEKEWVRVWFCNRRQKEKR [V42W]  -0.147 ± 0.094
39. KKRTSIEVSVKGALESHFLKCPKPSAQEITSLADSLQLEKEVVHVWFCNRRQKEKR [R44H]  -0.127 ± 0.11
40. KKRTSIEVSVKGALESHFLKCPKPSAQEITSLADSLQLEKEVVSVWFCNRRQKEKR [R44S]  -0.09 ± 0.07
41. KKRTSIEVSVKGALESHFLKCPKPSAQEITSLADSLQLEKEVVTVWFCNRRQKEKR [R44T]  -0.08 ± 0.11
42. KKRTSIEVSVKGALESHFLKCPKPSAQEITSLADSLQLEKEVVQVWFCNRRQKEKR [R44Q]  -0.057 ± 0.1
43. KKRTSIEVSVKGALESHFLKCPKPSAQEITSLADSLQLEKEVVAVWFCNRRQKEKR [R44A]  -0.027 ± 0.083
44. KKRTSIEVSVKGALESHFLKCPKPSAQEITSLADSLQLEKETVRVWFCNRRQKEKR [V42T]  -0.02 ± 0.12
45. KKRTSIEVSVKGALESHFLKCPKPSAQEITSLADSLQLEKEVVDVWFCNRRQKEKR [R44D]  0.008 ± 0.11
46. KKRTSIEVSVKGALESHFLKCPKPSAQEITSLADSLQLEKEVVEVWFCNRRQKEKR [R44E]  0.027 ± 0.12
47. KKRTSIEVSVKGALESHFLKCPKPSAQEITSLADSLQLEKEYVRVWFCNRRQKEKR [V42Y]  0.05 ± 0.2
